In paper PMC11429872 (bioRxiv, 2024):

Target: F-actin (rabbit, UniProt P68135 1-377)
Test: co-sedimentation

| Kd | Binder |
| --- | --- |
| 24.6 ± 12 µM | β-III-spectrin-FLAG fragment (amino acids 1-1066), wild-type (domain or fragment) MSSTLSPTDFDSLEIQGQYSDINNRWDLPDSDWDNDSSSARLFERSRIKALADEREAVQKKTFTKWVNSHLARVTCRVGDLYSDLRDGRNLLRLLEVLSGEILPKPTKGRMRIHCLENVDKALQFLKEQKVHLENMGSHDIVDGNHRLTLGLVWTIILRFQIQDISVETEDNKEKKSAKDALLLWCQMKTAGYPNVNVHNFTTSWRDGLAFNAIVHKHRPDLLDFESLKKCNAHYNLQNAFNLAEKELGLTKLLDPEDVNVDQPDEKSIITYVATYYHYFSKMKALAVEGKRIGKVLDHAMEAERLVEKYESLASELLQWIEQTIVTLNDRQLANSLSGVQNQLQSFNSYRTVEKPPKFTEKGNLEVLLFTIQSKLRANNQKVYTPREGRLISDINKAWERLEKAEHERELALRTELIRQEKLEQLAARFDRKAAMRETWLSENQRLVSQDNFGLELAAVEAAVRKHEAIETDIVAYSGRVQAVDAVAAELAAERYHDIKRIAARQHNVARLWDFLRQMVAARRERLLLNLELQKVFQDLLYLMDWMEEMKGRLQSQDLGRHLAGVEDLLQLHELVEADIAVQAERVRAVSASALRFCNPGKEYRPCDPQLVSERVAKLEQSYEALCELAAARRARLEESRRLWRFLWEVGEAEAWVREQQHLLASADTGRDLTGALRLLNKHTALRGEMSGRLGPLKLTLEQGQQLVAEGHPGASQASARAAELQAQWERLEALAEERAQRLAQAASLYQFQADANDMEAWLVDALRLVSSPELGHDEFSTQALARQHRALEEEIRSHRPTLDALREQAAALPPTLSRTPEVQSRVPTLERHYEELQARAGERARALEAALALYTMLSEAGACGLWVEEKEQWLNGLALPERLEDLEVVQQRFETLEPEMNTLAAQITAVNDIAEQLLKANPPGKDRIVNTQEQLNHRWQQFRRLADGKKAALTSALSIQNYHLECTETQAWMREKTKVIESTQGLGNDLAGVLALQRKLAGTERDLEAIAARVGELTREANALAAGHPAQAVAINARLREVQTGWEDLRATMRRREESLGEARR |
| 34.9 ± 14.4 µM | β-III-spectrin-FLAG fragment (amino acids 1-1066), R480W (domain or fragment) MSSTLSPTDFDSLEIQGQYSDINNRWDLPDSDWDNDSSSARLFERSRIKALADEREAVQKKTFTKWVNSHLARVTCRVGDLYSDLRDGRNLLRLLEVLSGEILPKPTKGRMRIHCLENVDKALQFLKEQKVHLENMGSHDIVDGNHRLTLGLVWTIILRFQIQDISVETEDNKEKKSAKDALLLWCQMKTAGYPNVNVHNFTTSWRDGLAFNAIVHKHRPDLLDFESLKKCNAHYNLQNAFNLAEKELGLTKLLDPEDVNVDQPDEKSIITYVATYYHYFSKMKALAVEGKRIGKVLDHAMEAERLVEKYESLASELLQWIEQTIVTLNDRQLANSLSGVQNQLQSFNSYRTVEKPPKFTEKGNLEVLLFTIQSKLRANNQKVYTPREGRLISDINKAWERLEKAEHERELALRTELIRQEKLEQLAARFDRKAAMRETWLSENQRLVSQDNFGLELAAVEAAVRKHEAIETDIVAYSGWVQAVDAVAAELAAERYHDIKRIAARQHNVARLWDFLRQMVAARRERLLLNLELQKVFQDLLYLMDWMEEMKGRLQSQDLGRHLAGVEDLLQLHELVEADIAVQAERVRAVSASALRFCNPGKEYRPCDPQLVSERVAKLEQSYEALCELAAARRARLEESRRLWRFLWEVGEAEAWVREQQHLLASADTGRDLTGALRLLNKHTALRGEMSGRLGPLKLTLEQGQQLVAEGHPGASQASARAAELQAQWERLEALAEERAQRLAQAASLYQFQADANDMEAWLVDALRLVSSPELGHDEFSTQALARQHRALEEEIRSHRPTLDALREQAAALPPTLSRTPEVQSRVPTLERHYEELQARAGERARALEAALALYTMLSEAGACGLWVEEKEQWLNGLALPERLEDLEVVQQRFETLEPEMNTLAAQITAVNDIAEQLLKANPPGKDRIVNTQEQLNHRWQQFRRLADGKKAALTSALSIQNYHLECTETQAWMREKTKVIESTQGLGNDLAGVLALQRKLAGTERDLEAIAARVGELTREANALAAGHPAQAVAINARLREVQTGWEDLRATMRRREESLGEARR |
